In experiment [1] the target is T1, Peptide 4 (biotinylated N-terminus CCR8 peptide, amino acids 19-30) (human, also: biotinylated, position not given here).
T1 construct: Captured on streptavidin polystyrene beads
T1 peptide: DIFSSPCDAELI
Description: flow cytometry, biotinylated peptide on streptavidin beads. How it is done: (§1) The biotinylated human CCR8 peptides were captured on streptavidin polystyrene beads (Spherotech) in FACS buffer (PBS+2% Fetal Bovine Serum) at a final protein concentration of 50-100 ng/ml and incubated for 30 minutes at room temperature. Beads were washed twice with FACS buffer to remove unbound protein, centrifuged to pellet the beads, and resuspended and pooled together in StabilGuard (SurModics). The pooled biotinylated human CCR8 coated beads were added to hybridoma supernatant samples in a 96-well plate, such that the final antibody concentration was 5.0 μg/mL, and then incubated for one hour at room temperature.
(§2) Plates were washed twice with FACS buffer, centrifuged to pellet the beads, and supernatant was removed and resuspended in FACS buffer to remove unbound antibodies. Alexa Fluor 488 goat anti-human or rat IgG (Fcγ fragment specific) secondary antibodies (Jackson ImmunoResearch) made up in FACS buffer at 5.0 μg/mL were added to each well, resuspended with beads and incubated for 15 minutes at room temperature. Plates were washed twice with FACS buffer, centrifuged to pellet the beads, and supernatant was removed and resuspended in FACS buffer to remove unbound secondary antibodies. Samples were then resuspended in FACS buffer and read on either IntelliCyt® iQue Flow Cytometer.
(§3) Data are represented as a ratio of geometric mean binding to beads coated with specific peptide divided by geometric mean of binding to a bead coated with a negative control peptide (peptide with unrelated sequence). A value above two represents presence of binding.
(A flow cytometer gives signals particle by particle.)

Experiment [2] concerns the target T2, Peptide 3 (biotinylated N-terminus CCR8 peptide, amino acids 13-24) (human, also: biotinylated, position not given here).
T2 construct: Captured on streptavidin polystyrene beads
T2 peptide: TDYYYPDIFSSP
The experiment is described as above. How it is done: as §1, §2, §3

Experiment [3] concerns the target T3, Peptide 2 (biotinylated N-terminus CCR8 peptide, amino acids 7-18) (human, also: biotinylated, position not given here).
T3 construct: Captured on streptavidin polystyrene beads
T3 peptide: LSVTTVTDYYYP
Described as above. How it is done: as §1, §2, §3

Experiment [4] deals with T4, Peptide 5 (biotinylated N-terminus CCR8 peptide, amino acids 25-35) (human, also: biotinylated, position not given here).
T4 construct: Captured on streptavidin polystyrene beads
T4 peptide: CDAELIQTNGK
The description is as above. As to the method:
as §1, §2, §3

Experiment [5] deals with T5, Peptide 1 (biotinylated N-terminus CCR8 peptide, amino acids 1-12) (human, also: biotinylated, position not given here).
T5 construct: Captured on streptavidin polystyrene beads
T5 peptide: MDYTLDLSVTTV
Description: flow cytometry, biotinylated peptide on streptavidin beads, antibody 5 ug/mL. How it is done: as §1
as §2, with “Cytometer. […]” for “Cytometer.”

A further experiment deals with T6, human CCR4 (human, UniProt P51679 1-360).
T6 construct: Transiently expressed on HEK293T; also called hCCR4
T6 sequence: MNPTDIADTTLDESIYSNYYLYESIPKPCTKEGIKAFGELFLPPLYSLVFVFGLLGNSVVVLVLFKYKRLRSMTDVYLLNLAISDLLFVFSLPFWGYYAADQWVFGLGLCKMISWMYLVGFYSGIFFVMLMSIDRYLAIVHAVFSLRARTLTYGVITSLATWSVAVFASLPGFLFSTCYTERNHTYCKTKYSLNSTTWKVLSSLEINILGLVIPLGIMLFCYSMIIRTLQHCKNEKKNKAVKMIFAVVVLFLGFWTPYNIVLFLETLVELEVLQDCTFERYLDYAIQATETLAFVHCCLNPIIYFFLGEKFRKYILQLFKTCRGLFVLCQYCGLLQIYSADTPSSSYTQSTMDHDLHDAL
Put plainly: flow cytometry, HEK293T transfectants. The text has this: Transfected cells were used to assess an antibody's binding specificity using flow cytometry on host Human Embryonic Kidney (HEK) 293T cells. Proteins were expressed on HEK 293T cells by transfection using human CCR8 (SEQ ID NO: 21), human CCR8 with an A27G point mutation (SEQ ID NO: 23), murine CCR8 (SEQ ID NO: 24), rat CCR8 (SEQ ID NO: 25), human CCR4 (SEQ ID NO: 26), or control expression vectors, Gibco™ Opti-MEM® media (Gibco), and 293Fectin™ reagent (Invitrogen) according to the manufacturer's instructions. Human T-cell lymphoma (HuT78) cell lines were also used to determine specificity to endogenously expressed CCR8.
Transfected HEK293T cells (24 hours after transfection) or HuT78 cells were resuspended in FACS buffer (PBS+2% Fetal Bovine Serum) and added to a 96-well plate. […]
Alexa Fluor 647 goat anti-human or rat IgG (Fcγ fragment specific) secondary antibodies (Jackson ImmunoResearch) made up in FACS buffer at 5.0 μg/mL were added to each well, and cells were resuspended and incubated for 15 minutes at 4° C. […] Samples were resuspended in FACS buffer and read on either IntelliCyt® iQue or BD Accuri™ Flow Cytometer with an Intellicyt HyperCyt autosampler.

Experiment [6] addresses T5, Peptide 1 (biotinylated N-terminus CCR8 …). Put plainly: flow cytometry, biotinylated peptide on streptavidin beads. As to the method:
as §1, §2, §3

The target in experiment [7] is T2, Peptide 3 (biotinylated N-terminus CCR8 …). Description: flow cytometry, biotinylated peptide on streptavidin beads, antibody 5 ug/mL. As to the method: as §1
as §2, with “Cytometer. […]” for “Cytometer.”

Where no end group is shown, it is not given here.

B1: Antibody 1 IgG2 (antibody)
heavy: EVQLVESGGGLVKPGGSLRLSCAASGFTFSNARMGWVRQAPGKGLEWVGRIKSKTEGGTRDYAAPVKGRFTISRDDSKNTLYLQMNSLKTEDTAVYYCTSYSGVWGQGTMVTVSSASTKGPSVFPLAPCSRSTSESTAALGCLVKDYFPEPVTVSWNSGALTSGVHTFPAVLQSSGLYSLSSVVTVPSSNFGTQTYTCNVDHKPSNTKVDKTVERKCCVECPPCPAPPVAGPSVFLFPPKPKDTLMISRTPEVTCVVVDVSHEDPEVQFNWYVDGVEVHNAKTKPREEQFNSTFRVVSVLTVVHQDWLNGKEYKCKVSNKGLPAPIEKTISKTKGQPREPQVYTLPPSREEMTKNQVSLTCLVKGFYPSDIAVEWESNGQPENNYKTTPPMLDSDGSFFLYSKLTVDKSRWQQGNVFSCSVMHEALHNHYTQKSLSLSPGK
light: not shown
notes: IgG2; tested as hybridoma supernatant
For the molecule B1, the binding result in experiment [1] was “no binding”; in experiment [2] it was “no binding”; in experiment [3], “no binding”; in experiment [4], “no binding”; with human CCR4, “no binding (tested: 5.0 ug/mL)”. Further, in experiment [5], the “ratio of geometric mean, peptide bead / negative control peptide bead” value came out at 3.

B2: Antibody 2 IgG2 (antibody, V domains shown)
VH: QVQLVESGGGVVQPGRSLRLSCAASGFTFSNYGMHWVRQAPGKGLEWVAVISYDGSNKFYADSVKGRFTISRDNSKKTLYLQMSSLRVEDTAVYYCARAGGIGRFDYWGQGTLVTVSS
VL: DFVMTQTPLSLSVTPGQPASISCKYSQSLLHSDGKTYLFWYLQKPGQPPHLLIYEVSNRFSGVPDRFSGSGSGTDFTLKISRVEAEDVGLYYCMQTLKLPLTFGGGTKVEINR
notes: as for B1
B2: the binding result is “no binding” in experiment [1]; “no binding” in experiment [3]; “no binding” in experiment [4]; “no binding” in experiment [6]; “no binding (tested: 5.0 ug/mL)” with human CCR4. In addition, the “ratio of geometric mean, peptide bead / negative control peptide bead” value in experiment [7] is 157.

Source of the values: patent US20250171549A1 (Amgen, published 2025).
